How the values were obtained:
[1] = target: T1, human CEACAM5 expressed on human cancer cell lines (MKN-45, NCI-H441, SK-CO-1, SNU-16, LS174T) (human, UniProt P06731 35-685); assay: cellular binding on MKN45 cells (FIG. 2)
T1 construct: Endogenous protein on cells; also called MKN45 cell line expressing human CEACAM5; CEACAM5-positive cell lines
T1 sequence: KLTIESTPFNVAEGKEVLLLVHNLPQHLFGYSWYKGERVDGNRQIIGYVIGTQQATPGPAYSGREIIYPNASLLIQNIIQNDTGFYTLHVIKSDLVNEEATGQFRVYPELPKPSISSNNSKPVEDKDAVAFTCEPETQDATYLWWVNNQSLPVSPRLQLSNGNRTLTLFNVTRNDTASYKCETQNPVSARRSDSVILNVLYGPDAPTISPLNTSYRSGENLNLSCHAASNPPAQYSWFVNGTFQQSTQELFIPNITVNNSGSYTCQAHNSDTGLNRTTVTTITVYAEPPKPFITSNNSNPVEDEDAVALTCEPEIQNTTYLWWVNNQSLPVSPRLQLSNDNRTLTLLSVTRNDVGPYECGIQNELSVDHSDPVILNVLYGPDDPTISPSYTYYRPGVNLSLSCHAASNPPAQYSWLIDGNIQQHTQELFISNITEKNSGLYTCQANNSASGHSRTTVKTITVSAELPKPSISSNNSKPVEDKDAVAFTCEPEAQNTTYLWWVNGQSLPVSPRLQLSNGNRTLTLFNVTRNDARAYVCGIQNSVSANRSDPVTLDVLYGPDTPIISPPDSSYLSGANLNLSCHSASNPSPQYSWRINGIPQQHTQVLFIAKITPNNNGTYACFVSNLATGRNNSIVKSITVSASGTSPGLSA

[2] = target: T1, human CEACAM5 expressed on human cancer …; assay: flow cytometry (MFI), titration on MKN-45 cells
Method: The antibody's ability to bind its target protein on cells was determined by titrating the antibody on cells that express the target (e.g. human CEACAM5) and measuring the fluorescence MFI of the cells. Model cells for antibody binding comparison were the MKN45 cell line expressing human CEACAM5 as well as a CHO cell line expressing mfCEACAM5. Titration was done with 10-point ×4 dilution, curve starting concentration 2000 nM in assay buffer (PBS×1 containing 1% BSA).

[3] = target: T2, BSA (bovine serum albumin) (bovine, UniProt P02769 25-607); assay: ELISA on coated antigen, antibody titrated
T2 construct: Negative control; also called unrelated protein
T2 sequence (P02769 25-607 limits assumed): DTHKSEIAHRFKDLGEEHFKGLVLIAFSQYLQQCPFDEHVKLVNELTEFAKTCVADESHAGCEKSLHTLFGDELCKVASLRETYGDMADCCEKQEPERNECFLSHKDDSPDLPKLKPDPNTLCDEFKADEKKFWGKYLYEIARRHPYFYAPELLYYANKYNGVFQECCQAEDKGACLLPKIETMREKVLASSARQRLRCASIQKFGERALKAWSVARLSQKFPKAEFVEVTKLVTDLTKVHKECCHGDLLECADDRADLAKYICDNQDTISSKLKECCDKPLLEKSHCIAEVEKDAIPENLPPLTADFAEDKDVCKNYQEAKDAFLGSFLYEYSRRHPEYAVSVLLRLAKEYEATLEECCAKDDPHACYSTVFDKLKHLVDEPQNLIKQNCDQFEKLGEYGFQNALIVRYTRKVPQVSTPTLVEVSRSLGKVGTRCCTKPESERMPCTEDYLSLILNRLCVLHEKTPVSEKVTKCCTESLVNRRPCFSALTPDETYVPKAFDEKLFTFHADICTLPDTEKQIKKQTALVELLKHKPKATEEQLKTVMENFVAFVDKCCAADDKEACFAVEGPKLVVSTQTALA

[4] = target: T3, recombinant human (rh) CEACAM5 ECD (Syngene) (human, UniProt P06731 35-685); assay: ELISA on coated antigen, antibody titrated
T3 sequence: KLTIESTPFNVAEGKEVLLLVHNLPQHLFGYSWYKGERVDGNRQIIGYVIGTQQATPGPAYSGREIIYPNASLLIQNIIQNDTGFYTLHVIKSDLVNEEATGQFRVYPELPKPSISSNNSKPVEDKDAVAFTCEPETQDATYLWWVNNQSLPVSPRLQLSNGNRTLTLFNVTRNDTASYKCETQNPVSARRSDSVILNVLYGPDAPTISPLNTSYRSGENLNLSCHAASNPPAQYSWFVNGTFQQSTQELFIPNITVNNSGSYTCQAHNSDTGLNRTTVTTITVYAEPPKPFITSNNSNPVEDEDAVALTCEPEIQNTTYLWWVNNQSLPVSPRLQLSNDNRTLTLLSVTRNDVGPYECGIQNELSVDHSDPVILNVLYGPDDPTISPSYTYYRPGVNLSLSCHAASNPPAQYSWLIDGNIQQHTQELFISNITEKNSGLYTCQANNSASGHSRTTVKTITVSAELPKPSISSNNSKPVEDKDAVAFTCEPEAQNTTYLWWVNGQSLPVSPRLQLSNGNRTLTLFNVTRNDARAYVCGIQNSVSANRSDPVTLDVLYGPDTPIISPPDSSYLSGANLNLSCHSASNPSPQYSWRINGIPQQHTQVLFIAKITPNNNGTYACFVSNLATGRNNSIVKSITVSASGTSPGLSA

[5] = target: T4, recombinant human CEACAM5 N-A1-B1 domain (Syngene) (human, UniProt P06731 35-320); assay: ELISA on coated antigen, antibody titrated
T4 construct: also called rhN-A1-B1
T4 sequence: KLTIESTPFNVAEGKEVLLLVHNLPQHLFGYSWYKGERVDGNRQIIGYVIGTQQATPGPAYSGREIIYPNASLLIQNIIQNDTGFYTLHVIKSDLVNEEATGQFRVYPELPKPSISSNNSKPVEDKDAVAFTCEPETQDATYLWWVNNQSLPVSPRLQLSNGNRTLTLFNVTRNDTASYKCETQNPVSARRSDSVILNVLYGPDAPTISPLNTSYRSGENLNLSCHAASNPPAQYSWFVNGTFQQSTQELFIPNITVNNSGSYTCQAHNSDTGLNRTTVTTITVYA

[6] = target: T5, recombinant human CEACAM5 A2-B2 domain (Syngene) (human, UniProt P06731 321-498); assay: ELISA on coated antigen, antibody titrated
T5 construct: also called rhA2-B2 domain
T5 sequence: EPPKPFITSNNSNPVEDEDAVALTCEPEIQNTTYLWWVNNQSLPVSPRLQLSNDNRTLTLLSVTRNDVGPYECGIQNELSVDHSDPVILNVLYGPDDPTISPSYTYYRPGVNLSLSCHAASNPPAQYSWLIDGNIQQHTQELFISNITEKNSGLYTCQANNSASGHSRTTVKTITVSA

[7] = target: T6, recombinant human CEACAM5 A3-B3 domain (Syngene) (human, UniProt P06731 499-685); assay: ELISA on coated antigen, antibody titrated
T6 construct: also called rhA3-B3
T6 sequence: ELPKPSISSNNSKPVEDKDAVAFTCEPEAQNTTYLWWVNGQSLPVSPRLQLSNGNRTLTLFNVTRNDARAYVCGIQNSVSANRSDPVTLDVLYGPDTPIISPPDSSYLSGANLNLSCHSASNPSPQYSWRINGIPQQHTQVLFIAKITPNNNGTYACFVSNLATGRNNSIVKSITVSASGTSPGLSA

[8] = target: T3, recombinant human (rh) CEACAM5 ECD …; assay: ELISA, 1 µg/ml coated antigen, antibody titrated; rhCEACAM5 ECD coated
[9] = target: T5, recombinant human CEACAM5 A2-B2 domain …; assay: ELISA, 1 µg/ml coated antigen, antibody titrated; rhA2-B2 domain coated

B1: mAb1 (final sequence-optimized anti-CEACAM5 antibody so8G4) (antibody, human IgG1, kappa)
heavy: EVQLQESGPGLVKPSQTLSLTCTVSDGSVSRGGYYLTWIRQHPGKGLEWIGYIYYSGSTYFNPSLRSRVTMSVDTSKNQFSLKLSSVTAADTAVYYCARGIAVAPFDYWGQGTLVTVSSASTKGPSVFPLAPSSKSTSGGTAALGCLVKDYFPEPVTVSWNSGALTSGVHTFPAVLQSSGLYSLSSVVTVPSSSLGTQTYICNVNHKPSNTKVDKRVEPKSCDKTHTCPPCPAPPVAGPSVFLFPPKPKDTLMISRTPEVTCVVVDVSHEDPEVKFNWYVDGVEVHNAKTKPREEQYNSTYRVVSVLTVLHQDWLNGKEYKCKVSNKALPSSIEKTISKAKGQPREPQVYTLPPSREEMTKNQVSLTCLVKGFYPSDIAVEWESNGQPENNYKTTPPVLDSDGSFFLYSKLTVDKSRWQQGNVFSCSVMHEALHNHYTQKSLSLSPG
light: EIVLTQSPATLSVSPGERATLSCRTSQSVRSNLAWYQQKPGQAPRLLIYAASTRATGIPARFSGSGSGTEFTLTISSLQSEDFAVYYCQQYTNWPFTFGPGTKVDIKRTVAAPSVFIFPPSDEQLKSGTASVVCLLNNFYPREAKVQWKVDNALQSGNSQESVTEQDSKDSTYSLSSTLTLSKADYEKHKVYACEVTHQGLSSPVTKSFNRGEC
notes: Labelled with pHrodo in the internalization assay
In the case of B1, the EC50 [1] is reported as 8300 pM, the EC50 [2] is reported as 10600 pM and the binding result [3] is reported as “no binding (tested: 4000 pM)”. The “EC50 (read off the curve)” value [4] was ~200 pM, the binding result [5] was “no binding (tested: 4000 pM)” and the “EC50 (read off the curve)” value [6] was ~200 pM. For the same binder, the binding result [7] was “no binding (tested: 4000 pM)”, the EC50 [8] was 153 pM and the EC50 [9] was 167 pM.
